Test results reported in IntAct's records for PubMed 10898792.

B1: Cell division control protein 13 (Saccharomyces cerevisiae), P32797 (parent)
chain: MDTLEEPECPPHKNRIFVSSSKDFEGYPSKAIVPVQFVALLTSIHLTETKCLLGFSNFERRGDQSQEDQYLIKLKFKDRGSERLARITISLLCQYFDIELPDLDSDSGASPTVILRDIHLERLCFSSCKALYVSKHGNYTLFLEDIKPLDLVSVISTISTKSTNSSKHSSSELISECDLNNSLVDIFNNLIEMNRDEKNRFKFVKLIHYDIELKKFVQDQQKVLSQKSKAAAINPFFVPNRLGIPYIESQNEFNSQLMTLNVDEPTTDISNMGEEMHDSADPIEDSDSSTTSSTGKYFSSKSYIQSQTPERKTSVPNNWHDDDSGSKRKRKLSFHSPNASSIRKAISYEQLSLASVGSVERLEGKIVGMNPPQFASINEFKYCTLKLYFTQLLPNVPDKVLVPGVNCIEIVIPTRERICELFGVLNCQSDKISDILLLEKPDRISVEVERILWDNDKTASPGMAVWSLKNISTDTQAQAQVQVPAQSSASIDPSRTRMSKMARKDPTIEFCQLGLDTFETKYITMFGMLVSCSFDKPAFISFVFSDFTKNDIVQNYLYDRYLIDYENKLELNEGFKAIMYKNQFETFDSKLRKIFNNGLRDLQNGRDENLSQYGIVCKMNIKVKMYNGKLNAIVRECEPVPHSQISSIASPSQCEHLRLFYQRAFKRIGESAISRYFEEYRRFFPIHRNGSHLAKLRFDEVKHEPKKSPTTPALAEHIPDLNADVSSFDVKFTDISSLLDSSARLPRPQQTHKSNTLYSCEGRIIAIEYHASDLCFHITNELPLLQTRGLAPERVLQLHIITSKNFAYFFNRSSAYLQRQPLEEKYTQLAQFLGHSFKFNITSSLTLFPDTTVALQIWCPIECTFRELQQQLAHPKVAAAPDSGSLDCAINATVNPLRLLAAQNGVTVKKEEDNDDDAGAVPTS
partner: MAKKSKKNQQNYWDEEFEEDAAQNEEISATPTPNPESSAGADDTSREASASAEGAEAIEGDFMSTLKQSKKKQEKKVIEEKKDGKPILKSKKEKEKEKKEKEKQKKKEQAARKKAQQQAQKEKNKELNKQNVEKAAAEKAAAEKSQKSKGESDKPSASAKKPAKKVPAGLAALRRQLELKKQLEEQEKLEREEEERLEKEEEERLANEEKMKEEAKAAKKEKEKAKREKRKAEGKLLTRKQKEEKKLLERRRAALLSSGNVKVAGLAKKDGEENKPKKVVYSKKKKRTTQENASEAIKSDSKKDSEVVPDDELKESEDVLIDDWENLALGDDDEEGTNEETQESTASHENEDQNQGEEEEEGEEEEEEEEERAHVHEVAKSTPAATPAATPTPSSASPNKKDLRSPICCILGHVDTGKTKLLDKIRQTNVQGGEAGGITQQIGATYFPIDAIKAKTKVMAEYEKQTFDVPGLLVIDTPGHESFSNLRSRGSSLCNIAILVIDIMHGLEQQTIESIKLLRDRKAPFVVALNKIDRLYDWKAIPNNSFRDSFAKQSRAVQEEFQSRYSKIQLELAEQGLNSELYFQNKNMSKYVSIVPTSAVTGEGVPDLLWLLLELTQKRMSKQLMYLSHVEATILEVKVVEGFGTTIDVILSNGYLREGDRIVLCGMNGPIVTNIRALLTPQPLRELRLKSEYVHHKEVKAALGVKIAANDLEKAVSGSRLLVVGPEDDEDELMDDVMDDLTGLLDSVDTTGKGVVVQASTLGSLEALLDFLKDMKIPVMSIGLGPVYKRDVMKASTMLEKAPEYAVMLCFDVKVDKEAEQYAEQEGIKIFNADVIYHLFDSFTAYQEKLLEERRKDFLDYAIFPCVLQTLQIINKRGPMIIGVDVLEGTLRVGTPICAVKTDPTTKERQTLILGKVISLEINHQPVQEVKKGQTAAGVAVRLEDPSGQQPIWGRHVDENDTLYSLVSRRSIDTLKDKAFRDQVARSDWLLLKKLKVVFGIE
B2: Cell division control protein 13 (Saccharomyces cerevisiae), P32797 (parent)
chain: B1 chain
partner: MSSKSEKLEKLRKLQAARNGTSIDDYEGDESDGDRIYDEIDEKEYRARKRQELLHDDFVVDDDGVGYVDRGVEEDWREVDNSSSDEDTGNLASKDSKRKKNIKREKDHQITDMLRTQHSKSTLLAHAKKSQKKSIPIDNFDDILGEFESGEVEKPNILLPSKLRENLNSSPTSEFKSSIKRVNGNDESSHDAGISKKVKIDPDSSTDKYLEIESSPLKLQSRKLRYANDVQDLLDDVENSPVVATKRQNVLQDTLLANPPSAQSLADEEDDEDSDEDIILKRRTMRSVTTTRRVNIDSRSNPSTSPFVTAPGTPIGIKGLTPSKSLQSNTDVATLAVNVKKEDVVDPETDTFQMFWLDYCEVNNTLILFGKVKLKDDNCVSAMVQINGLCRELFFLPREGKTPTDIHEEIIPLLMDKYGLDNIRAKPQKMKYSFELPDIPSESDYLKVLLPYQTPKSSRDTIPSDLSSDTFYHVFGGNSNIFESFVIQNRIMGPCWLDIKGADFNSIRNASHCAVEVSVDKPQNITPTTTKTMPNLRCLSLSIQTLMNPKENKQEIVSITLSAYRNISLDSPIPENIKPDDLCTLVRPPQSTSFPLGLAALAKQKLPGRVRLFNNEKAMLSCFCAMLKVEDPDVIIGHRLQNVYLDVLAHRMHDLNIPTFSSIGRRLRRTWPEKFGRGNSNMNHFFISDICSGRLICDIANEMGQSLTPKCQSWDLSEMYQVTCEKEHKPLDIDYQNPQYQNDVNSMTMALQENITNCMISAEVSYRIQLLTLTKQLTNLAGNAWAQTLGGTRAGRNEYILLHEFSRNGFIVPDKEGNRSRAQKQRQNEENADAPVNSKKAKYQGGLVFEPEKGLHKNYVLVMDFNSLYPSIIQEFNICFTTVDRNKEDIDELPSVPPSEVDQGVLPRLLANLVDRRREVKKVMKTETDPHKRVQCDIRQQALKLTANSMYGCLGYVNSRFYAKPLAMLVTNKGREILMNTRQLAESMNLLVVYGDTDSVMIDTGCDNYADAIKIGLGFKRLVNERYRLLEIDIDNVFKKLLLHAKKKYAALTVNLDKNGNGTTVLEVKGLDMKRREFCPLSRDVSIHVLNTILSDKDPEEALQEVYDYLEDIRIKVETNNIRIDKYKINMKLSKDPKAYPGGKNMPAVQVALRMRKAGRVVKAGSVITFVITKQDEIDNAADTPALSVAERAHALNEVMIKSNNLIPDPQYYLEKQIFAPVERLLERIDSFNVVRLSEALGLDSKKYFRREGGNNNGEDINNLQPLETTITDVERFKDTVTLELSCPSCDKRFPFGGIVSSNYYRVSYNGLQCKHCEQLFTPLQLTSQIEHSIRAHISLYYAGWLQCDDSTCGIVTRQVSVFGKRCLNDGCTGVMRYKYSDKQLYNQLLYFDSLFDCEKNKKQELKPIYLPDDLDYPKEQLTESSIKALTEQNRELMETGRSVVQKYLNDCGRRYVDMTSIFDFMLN
B3: DNA polymerase alpha catalytic subunit A (Saccharomyces cerevisiae), P13382 (parent)
chain: B2 partner
partner: B1 chain

Variants of: B1
Settings: with if2p_yeast FUN12, P39730

| effect of a mutation on the interaction | Variant |
| --- | --- |
| decreasing interaction | I72T |
| decreasing interaction | K129R |
| decreasing interaction | G243R |

Variants of: B2
Settings: with dpola_yeast POL1, P13382

| effect of a mutation on the interaction | Variant |
| --- | --- |
| decreasing interaction | S228P |
| decreasing interaction | L392P |
| decreasing interaction | I523V |
| decreasing interaction | D97F |
| decreasing interaction | I72T |
| decreasing interaction | L149S |
| decreasing interaction | Y382H |
| decreasing interaction | K50Q |
| decreasing interaction | C124R |
| decreasing interaction | K129R |
| decreasing interaction | G243R |

Variants of: B3
Settings: with cdc13_yeast CDC13, P32797

| effect of a mutation on the interaction | Variant |
| --- | --- |
| decreasing interaction | E238K |
| decreasing interaction | D236N |
| decreasing interaction | P241T |
